Results published in the Immune Epitope Database (IEDB).

Key:
Experiment in all cases: IEDB peptide-MHC binding, purified MHC/competitive/radioactivity; filed as Kd, often an IC50 or EC50 that approximates it; ≥ and ≤ were set here for values at or beyond the usual limits of such assays
HLA-A*02:02 = biological target: HLA-A*02:02
HLA-A*02:03 = biological target: HLA-A*02:03
HLA-A*02:06 = biological target: HLA-A*02:06
[1] = source organism: Vaccinia virus WR
[2] = source organism: Dengue virus 4 Philippines/H241/1956
[3] = source organism: SARS coronavirus Tor2
[4] = source organism: Dengue virus 2 Jamaica/1409/1983
[5] = source organism: HIV-1 M:B_ARV2/SF2
[6] = source organism: Mammarenavirus brazilense

Work on TLLNETAKV yielded a Kd (HLA-A*02:02; [1]) of 246 nM, a Kd (HLA-A*02:03; [1]) of 83.1 nM and a Kd (HLA-A*02:06; [1]) of 11.1 nM.
STISWMMKL gave a Kd (HLA-A*02:02; [1]) of 92.2 nM, a Kd (HLA-A*02:03; [1]) of 22.8 nM and a Kd (HLA-A*02:06; [1]) of 12.1 nM.
GVSGNIVSSV was tested, and the Kd (HLA-A*02:03; [2]) was 30.6 nM.
In the case of IVQSVLRDI, the Kd (HLA-A*02:02; [1]) is reported as at least 77800 nM, the Kd (HLA-A*02:03; [1]) is reported as 101 nM and the Kd (HLA-A*02:06; [1]) is reported as 1310 nM.
YLMCLSPLMA gave a Kd (HLA-A*02:02; [3]) of 0.237 nM, a Kd (HLA-A*02:03; [3]) of 0.127 nM and a Kd (HLA-A*02:06; [3]) of 1.29 nM.
TTENAAYQV gave a Kd (HLA-A*02:02; [1]) of at least 77800 nM, a Kd (HLA-A*02:03; [1]) of at least 51300 nM and a Kd (HLA-A*02:06; [1]) of 442 nM.
With GLFDINVIGL the Kd (HLA-A*02:02; [1]) was 0.163 nM, the Kd (HLA-A*02:03; [1]) was 1.43 nM and the Kd (HLA-A*02:06; [1]) was 240 nM.
Work on ITVGMLIYSM yielded a Kd (HLA-A*02:02; [1]) of 47.4 nM, a Kd (HLA-A*02:03; [1]) of 6110 nM and a Kd (HLA-A*02:06; [1]) of 97.1 nM.
In the case of AISYCRAFI, the Kd (HLA-A*02:02; [1]) is reported as 17.2 nM, the Kd (HLA-A*02:03; [1]) is reported as 149 nM and the Kd (HLA-A*02:06; [1]) is reported as 146 nM.
SMFEPEREKV gave a Kd (HLA-A*02:03; [4]) of 140 nM.
NTKSDNIINI was tested, and the Kd (HLA-A*02:02; [1]) was at least 30800 nM, the Kd (HLA-A*02:03; [1]) was 1080 nM and the Kd (HLA-A*02:06; [1]) was at least 69800 nM.
For LLDDFVEII, the Kd (HLA-A*02:02; [3]) was 136 nM, the Kd (HLA-A*02:03; [3]) was 523 nM and the Kd (HLA-A*02:06; [3]) was 159 nM.
For QMYRKFSRCT, the Kd (HLA-A*02:02; [1]) was at least 25700 nM, the Kd (HLA-A*02:03; [1]) was 2270 nM and the Kd (HLA-A*02:06; [1]) was 14700 nM.
Work on DTIESAKTKI yielded a Kd (HLA-A*02:02; [1]) of at least 47900 nM, a Kd (HLA-A*02:03; [1]) of at least 50500 nM and a Kd (HLA-A*02:06; [1]) of at least 69800 nM.
Work on LLTHGADPNA yielded a Kd (HLA-A*02:02; [1]) of 9610 nM, a Kd (HLA-A*02:03; [1]) of 7510 nM and a Kd (HLA-A*02:06; [1]) of 15800 nM.
NINFNNSSII gave a Kd (HLA-A*02:02; [1]) of 6640 nM, a Kd (HLA-A*02:03; [1]) of 13300 nM and a Kd (HLA-A*02:06; [1]) of at least 30100 nM.
LVGPTPVNI gave a Kd (HLA-A*02:02; [5]) of 38 nM and a Kd (HLA-A*02:03; [5]) of 17.6 nM.
Sequence RIVVALSSLV has a Kd (HLA-A*02:02; [1]) of 47.6 nM, a Kd (HLA-A*02:03; [1]) of 7.21 nM and a Kd (HLA-A*02:06; [1]) of 9.62 nM.
In the case of VISVIFYFI, the Kd (HLA-A*02:02; [1]) is reported as 1.4 nM, the Kd (HLA-A*02:03; [1]) is reported as 729 nM and the Kd (HLA-A*02:06; [1]) is reported as 497 nM.
For TVDFTDCRT, the Kd (HLA-A*02:02; [1]) was 9680 nM, the Kd (HLA-A*02:03; [1]) was at least 27000 nM and the Kd (HLA-A*02:06; [1]) was 339 nM.
Sequence KCFGNTALA has a Kd (HLA-A*02:02; [6]) of 31 nM, a Kd (HLA-A*02:03; [6]) of 1090 nM and a Kd (HLA-A*02:06; [6]) of at least 77000 nM.
For LLFLNDMGKV, the Kd (HLA-A*02:03; [2]) was 6.83 nM.
LLVQYGAKI showed a Kd (HLA-A*02:02; [1]) of 206 nM, a Kd (HLA-A*02:03; [1]) of 358 nM and a Kd (HLA-A*02:06; [1]) of 1140 nM.
For KTNTKHCPKI, the Kd (HLA-A*02:02; [1]) was at least 33800 nM, the Kd (HLA-A*02:03; [1]) was 10900 nM and the Kd (HLA-A*02:06; [1]) was 234 nM.
With NQAAILMGL the Kd (HLA-A*02:06; source organism: Dengue virus 1 Brazil/97-11/1997) was 12.5 nM.
In the case of NINIEVKLFI, the Kd (HLA-A*02:02; [1]) is reported as 12500 nM, the Kd (HLA-A*02:03; [1]) is reported as 2050 nM and the Kd (HLA-A*02:06; [1]) is reported as 2320 nM.
KAKQLCYCPA was tested, and the Kd (HLA-A*02:02; [1]) was 308 nM, the Kd (HLA-A*02:03; [1]) was 188 nM and the Kd (HLA-A*02:06; [1]) was 339 nM.
For DTCLLAISA, the Kd (HLA-A*02:02; [1]) was 4330 nM, the Kd (HLA-A*02:03; [1]) was 6450 nM and the Kd (HLA-A*02:06; [1]) was at least 25200 nM.
DTGKKELAL was tested, and the Kd (HLA-A*02:02; [1]) was 116 nM, the Kd (HLA-A*02:03; [1]) was 156 nM and the Kd (HLA-A*02:06; [1]) was 14200 nM.
ILSNKLLYAA was tested, and the Kd (HLA-A*02:02; [1]) was 8.09 nM, the Kd (HLA-A*02:03; [1]) was 1110 nM and the Kd (HLA-A*02:06; [1]) was 150 nM.
Sequence MAGVEVRYI has a Kd (HLA-A*02:02; [1]) of 293 nM, a Kd (HLA-A*02:03; [1]) of 201 nM and a Kd (HLA-A*02:06; [1]) of 2050 nM.
For PAHLINKLL, the Kd (HLA-A*02:02; [1]) was 6690 nM, the Kd (HLA-A*02:03; [1]) was 6310 nM and the Kd (HLA-A*02:06; [1]) was at least 42300 nM.
SIENKHQRRL gave a Kd (HLA-A*02:02; [1]) of 17000 nM, a Kd (HLA-A*02:03; [1]) of at least 21100 nM and a Kd (HLA-A*02:06; [1]) of at least 53900 nM.
Work on VMKDGRVLV yielded a Kd (HLA-A*02:03; [4]) of 50.7 nM.
With KIILFQNNDI the Kd (HLA-A*02:02; [1]) was 1610 nM, the Kd (HLA-A*02:03; [1]) was 2000 nM and the Kd (HLA-A*02:06; [1]) was 2170 nM.
With CTMERTNDLT the Kd (HLA-A*02:02; [1]) was 4050 nM, the Kd (HLA-A*02:03; [1]) was 16100 nM and the Kd (HLA-A*02:06; [1]) was 1010 nM.
With WVMDTLNGI the Kd (HLA-A*02:02; [1]) was 9.78 nM, the Kd (HLA-A*02:03; [1]) was 1.01 nM and the Kd (HLA-A*02:06; [1]) was 0.731 nM.
In the case of NLYKVYNGI, the Kd (HLA-A*02:02; [1]) is reported as 408 nM, the Kd (HLA-A*02:03; [1]) is reported as 61.7 nM and the Kd (HLA-A*02:06; [1]) is reported as 817 nM.
Work on ITAIYVFCI yielded a Kd (HLA-A*02:02; [3]) of 28.7 nM, a Kd (HLA-A*02:03; [3]) of 89.2 nM and a Kd (HLA-A*02:06; [3]) of 132 nM.
AMIHKTYIDV was tested, and the Kd (HLA-A*02:02; [1]) was 335 nM, the Kd (HLA-A*02:03; [1]) was 26.7 nM and the Kd (HLA-A*02:06; [1]) was 206 nM.
Work on VLEKKVCAIT yielded a Kd (HLA-A*02:02; [1]) of 590 nM, a Kd (HLA-A*02:03; [1]) of 1240 nM and a Kd (HLA-A*02:06; [1]) of 1680 nM.
In the case of ALYYVHSLL, the Kd (HLA-A*02:02; [1]) is reported as 26.1 nM, the Kd (HLA-A*02:03; [1]) is reported as 15000 nM and the Kd (HLA-A*02:06; [1]) is reported as 3260 nM.
Sequence IAVANCVRNL has a Kd (HLA-A*02:02; [1]) of 57.1 nM, a Kd (HLA-A*02:03; [1]) of 467 nM and a Kd (HLA-A*02:06; [1]) of 9120 nM.
NQATVLMGL gave a Kd (HLA-A*02:06; [4]) of 10.6 nM.
TQVKELGIA gave a Kd (HLA-A*02:02; [1]) of 7220 nM, a Kd (HLA-A*02:03; [1]) of 52.2 nM and a Kd (HLA-A*02:06; [1]) of 55.6 nM.
Sequence HLDGEVLSL has a Kd (HLA-A*02:02; [3]) of 65.9 nM, a Kd (HLA-A*02:03; [3]) of 131 nM and a Kd (HLA-A*02:06; [3]) of 160 nM.
Work on ITPTIEDDKI yielded a Kd (HLA-A*02:02; [1]) of 18700 nM, a Kd (HLA-A*02:03; [1]) of 4200 nM and a Kd (HLA-A*02:06; [1]) of 1500 nM.
IASSMKGENV gave a Kd (HLA-A*02:02; [1]) of 751 nM, a Kd (HLA-A*02:03; [1]) of 3240 nM and a Kd (HLA-A*02:06; [1]) of 311 nM.
